This data set is described as follows: label from the status in PepcDB records.
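Note: failed if final PepcDB status was selected cloned or expressed and not failed if soluble or beyond.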

As to “MYELERTVFQELFRRVLDNQYQVTPEERKALVQCDNSIVRRGIFSALTSFSLIYYGLKQFQKHFNASSSLRLRPAIPATLLGLTTGFFYGRTAAPGCLQNLMNVPNSAVAEEVKIIIRELYEQSPSSTTGQTIATRYGFLLDSTTVPMKISDVGFGDNENSDWKEVDTWQSDNSIYQGTVQKRVGPRNSDKRRVIRPNDKVENHIHQDALANSTSSLPSNETDYGFASLPGYSSSQSDSDVLESWDIGNDNQQENTNNEPNVKKESHRRRRRNEFRKSNGQVKSLESDPTEQGTIQTDTKDLLSSRQDTDALWDSSFSGKGSSATAF”, the protein production result is recorded as “failed”.

In the case of “MYETFMKRAIELAKKGLGRVNPNPPVGAVVVKDGRIIAEGFHPYFGGPHAERMAIESARKKGEDLRGATLIVTLEPCDHHGKTPPCTDLIIESGIKTVVIGTRDPNPVSGNGVEKFRNHGIEVIEGVLEEEVKKLCEFFITYVTKKRPFVALKYASTLDGKIADHRGDSKWITDKLRFKVHEMRNIYSAVLVGAGTVLKDNPQLTCRLKEGRNPVRVILDRKGVLSGKVFRVFEENARVIVFTESEEAEYPPHVEKALSDCSVESILRNLYERDIDSVLVEGGSKVFSEFLDHADVVFGFYSTKIFGKGLDVFSGYLSDVSVPPKFKVVNVEFSDSEFLVEMRPCSRE”, the protein production entry was “not failed”.

As to “MYILIGGMGSMGSNLAKNLLKMGHTVAAVDTDPLACQYAREKIGVMAFEGSAVNTSVLLEAGVRKAGAVIAALQEDALNLALVTLSKHYGVPQIVVRMSDGDFAEPYRLAGATHIISTTELALNRVINAIEYPQVDAMMHFEQGQIEVLKLSIPPNCTIVGRSVAAIAQDPRFPSGTLIIGYQANAHEDLKIPNGNTLLEDGSTILAVTKPELVRQLIDFMGLCQS”, the protein production entry is recorded as “failed”.

On to “MYIPNAFRESDTHNLQEHMDKTRLAILVTQGDDGLHATHLPLLLRSDEGPYGTLYGHMAKANPQWQQLNADAEAMVIFPGEDAYVSPSFYPSKAEHGKVVPTWNYLAVHAYGQAECFTDPDRLHQLLNDLTDRHESSRAQPWSINDAPADYIAKMLGAIVGFSIPVQRL”, for which the protein production result is “failed”.

“MYKRRVDPELEDLTSRAREALALFISISLRDNTELNLVVPNGPSWLSHVDKKDLYLNDETLKKITDILVAKDVTGNYNIVNVAIAAAPQHSQKRFVIYIKTSIYVEIVVIGNMKSNLTLIADGQDSTIITFNLSSSNSKRTFNTATFASNGDGFIRVDMCFRNTTWPVKGPVVTLRVNGDMSIIYRCRVEEYQDALYPHKNRQCYREYFLMDTVDFICGNAAAVFQFCQIVHMDG”: the protein production result is on record as “not failed”.

In the case of “MYLEKLQQWRYATADFSGAHITDDVLDKLLNTTRLTASSYGLQPYCTLVIRNKGLREQLVNHSFGQQKVADSSALVIFAAKTGAVADIVDPYISELSQQRQLTNEEAENTRNYFTQKLQAMSAATRKEWAVRQAYIGLGTFLLAAAELEVDSCPMEGIEHDAYDNILSLKDLGLSTVFACPVGYRSEADTTQFQKKVRQPLSRFKVVL”, the protein production entry is listed as “not failed”.

For “MYLLTFILIRINKYSDKAKKSAILVLLFLSLGAILKILEIADPSVKMDYIIQLVYSLTVFGAFVALSFYIKFLETPPSLTVHHSTKLPKNGGSEPKLVGAYLVSGSRSRIVDLINMIRELNAPILVFTRYPTFYQDLGENIKVIWITQASEDGIPPTKLHVIQDYAIKFAKENKYAVVIIDCVEYLLLYNEFASVFKFLASLKDYLIMMNSALVLAVDEKALDEKYYTLLLNEFEPL”, the protein production entry was “failed”.

For the sequence “MYLQCYINEKGEKVYTTKKESPLGLATESAHPARFSPDDKYSKQRVLLKKRFGLLPTQNAPLQY”, the protein production entry is reported as “failed”.

Take “MYMAQPGHIDHIKQINAGRVYKLIDQKGPISRIDLSKESELAPASITKITRELIDAHLIHETTVQEAISRGRPAVGLQTNNLGWQFLSMRLGRGYLTIALHELGGEVLIDTKIDIHEIDQDDVLARLLFEIEEFFQTYAAQLDRVTSIAITLPGLVNSEQGIVLQMPHYNVKNLALGPEIYKATGLPVFVANDTRAWALAEKLFGHSQDVDNSVLISIHHGLGAGIVLDGRVLQGRHGNIGELGHIQIDPQGKRCHCGNYGCLETVASSQAIRDQVTARIQAGEPSCLATVEEISIEDICAAAADGDPLAVDVIQQLGRYLGAAIAIVINLFNPEKILIGGVINQAKSILYPSIEQCIREQSLPVYHQDLKLVESRFYKQATMPGAALIKQALYDGLLLMKVVEG”: the protein production entry is reported as “not failed”.
